Assay [1] deals with T1, BSA (bovine, UniProt P02769 25-607).
T1 construct: also called bovine serum albumin
In words: ELISA. Here is the method:
(§1) To select antibody clones that bind to human TFPI, Fab genes of the phage clones from the second and third round of panning were subcloned into a bacterial expression vector and expressed in E. coli strain TG1. The bacterial lysate was added to the wells of the human TFPI-coated Maxisorp plates. After washing, HRP-conjugated goat anti-human Fab was used as a detection antibody and the plates were developed by adding AmplexRed (Invitrogen) with hydrogen peroxide. A signal of at least five-fold higher than the background was considered as positive. The cross reactivity of the anti-human TFPI antibodies to mouse TFPI was determined by a similar mouse TFPI-binding ELISA. The plates were coated with mouse TFPI (R&D System), BSA and lysozyme. The later two antigens were used as negative controls.

The target in assay [2] is T2, human tissue factor pathway inhibitor (TFPI) (human, UniProt P10646 29-304, limits assumed).
T2 construct: Bought protein; also called human TFPI; hTFPI
T2 sequence (looked up): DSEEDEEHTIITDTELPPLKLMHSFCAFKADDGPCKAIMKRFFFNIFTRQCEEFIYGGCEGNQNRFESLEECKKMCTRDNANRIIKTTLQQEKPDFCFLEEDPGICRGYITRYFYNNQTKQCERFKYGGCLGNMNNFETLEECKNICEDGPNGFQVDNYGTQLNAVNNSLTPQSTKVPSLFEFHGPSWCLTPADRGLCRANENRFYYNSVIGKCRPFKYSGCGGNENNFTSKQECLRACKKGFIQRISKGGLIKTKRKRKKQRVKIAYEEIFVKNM
Description: ELISA, Fab lysate on coated human TFPI. Here is the method:
as §1
For orientation: ELISA stands for enzyme-linked immunosorbent assay.

For assay [3], the target named is T2, human tissue factor pathway inhibitor …. Description: Biacore, TFPI on CM5 chip, Fab in mobile phase. As for the experimental part:
(§2) Purified Fab antibodies were used to determine EC₅₀ of anti-TFPI antibodies to human or mouse TFPI. EC₅₀ was assessed in an ELISA, similarly as described above. The results were analyzed using SoftMax. The binding affinity of anti-TFPI antibodies was determined in a Biacore assay. Briefly, the antigen, either human or mouse TFPI, was immobilized on the CM5-chips using the amine coupling kit (GE HealthCare) according to the instructions of the manufacturer. The amount of immobilized TFPI was adjusted to the mass of the antigen to give approximate 300 RU. The antibody Fabs were analyzed in mobile phase and at least five different concentrations (0.1, 0.4, 1.6, 6.4 and 25 nM) of the purified antibodies were used in the Biacore assay. The kinetics and binding affinity were calculated using Biacore T100 Evaluation software.
(In general: Surface plasmon resonance follows binding to a sensor surface in real time, without labels.)

Assay [4] shares this target. Description: ELISA, Fab on coated TFPI. As for the experimental part: as §1, §2

T1 sequence (P02769 25-607 limits assumed): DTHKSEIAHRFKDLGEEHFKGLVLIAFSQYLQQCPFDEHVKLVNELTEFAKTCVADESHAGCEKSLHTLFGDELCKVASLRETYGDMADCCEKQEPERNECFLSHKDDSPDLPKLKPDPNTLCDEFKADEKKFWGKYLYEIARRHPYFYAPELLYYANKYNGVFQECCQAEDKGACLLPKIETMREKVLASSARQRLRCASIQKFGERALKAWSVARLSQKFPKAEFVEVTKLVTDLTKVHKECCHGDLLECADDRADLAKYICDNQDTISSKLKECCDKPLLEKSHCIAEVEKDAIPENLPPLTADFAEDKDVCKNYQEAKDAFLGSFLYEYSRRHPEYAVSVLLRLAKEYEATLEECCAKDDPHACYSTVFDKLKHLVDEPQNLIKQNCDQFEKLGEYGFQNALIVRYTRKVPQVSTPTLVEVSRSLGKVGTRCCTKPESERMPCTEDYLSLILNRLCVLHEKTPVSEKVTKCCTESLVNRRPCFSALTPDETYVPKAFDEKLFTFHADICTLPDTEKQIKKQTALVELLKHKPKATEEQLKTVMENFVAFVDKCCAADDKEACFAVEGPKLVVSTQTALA

B1: TP-3A2 Fab (Fab, V domains shown)
VH: QVQLVESGGGLVQPGGSLRLSCAASGFTFSNYYLSWVRQAPGKGLEWVSGISYNGSSTNYADSVKGRFTISRDNSKNTLYLQMNSLRAEDTAVYYCARMWRYSLGADSWGQGTLVTVSS
VL: DIELTQPPSVSVAPGQTARISCSGDNIGSRYAYWYQQKPGQAPVVVIYDDSDRPSGIPERFSGSNSGNTATLTISGTQAEDEADYYCAAYTFYARTVFGGGTKLTVLG
notes: Human Fab from HuCal Gold, expressed in E. coli TG1
With B1, the binding result is “no binding” in assay [1] and “binds” in assay [2].

B2: TP-2A6 Fab (Fab, V domains shown)
VH: QVQLVESGGGLVQPGGSLRLSCAASGFTFSRYAMSWVRQAPGKGLEWVSSIISSSSETYYADSVKGRFTISRDNSKNTLYLQMNSLRAEDTAVYYCARLMGYGHYYPFDYWGQGTLVTVSS
VL: DIELTQPPSVSVAPGQTARISCSGDKIGSKYVYWYQQKPGQAPVLVIYDSNRPSGIPERFSGSNSGNTATLTISGTQAEDEADYYCASYDSIYSYWVFGGGTKLTVLG
notes: as for B1
In the case of B2, the binding result was “no binding” in assay [1] and “binds” in assay [2].

B3: TP-4A9 Fab (Fab, V domains shown)
VH: QVQLVESGGGLVQPGGSLRLSCAASGFTFSSYGMSWVRQAPGKGLEWVSLISGVSSSTYYADSVKGRFTISRDNSKNTLYLQMNSLRAEDTAVYYCARSYLGYFDVWGQGTLVTVSS
VL: DIELTQPPSVSVAPGQTARISCSGDALGKYYASWYQQKPGQAPVLVIYGDNKRPSGIPERFSGSNSGNTATLTISGTQAEDEADYYCQSYTTRSLVFGGGTKLTVLG
notes: as for B1
Consider B3, for which, in assay [1], the binding result is “no binding”. Moreover, in assay [3], the Kd (commonly the equilibrium constant for the complex coming apart) stood at 7.6 nM. In addition, in assay [4], the EC50 (commonly the concentration giving half of the maximal effect) was determined as 0.17 nM.

B4: TP-2D7 Fab (Fab, V domains shown)
VH: QVQLQQSGPGLVKPSQTLSLTCAISGDSVSSNSAAWGWIRQSPGRGLEWLGLIYYRSKWYNDYAVSVKSRITINPDTSKNQFSLQLNSVTPEDTAVYYCARFGDTNRNGTDVWGQGTLVTVSS
VL: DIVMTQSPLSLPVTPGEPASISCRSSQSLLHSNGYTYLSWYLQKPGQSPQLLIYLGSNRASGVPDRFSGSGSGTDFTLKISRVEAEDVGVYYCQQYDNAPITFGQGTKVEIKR
notes: as for B1
In the case of B4, the values for the binding result in assay [1] and in assay [2] were “no binding” and “binds”, respectively.

B5: TP-2B4 Fab (Fab, V domains shown)
VH: QVQLVESGGGLVQPGGSLRLSCAASGFTFSNYSMTWVRQAPGKGLEWVSGISYNGSNTYYADSVKGRFTISRDNSKNTLYLQMNSLRAEDTAVYYCARIYYMNLLAGWGQGTLVTVSS
VL: DIELTQPPSVSVAPGQTARISCSGDALGTYYAYWYQQKPGQAPVLVIYGDMNRPSGIPERFSGSNSGNTATLTISGTQAEDEADYYCQSYDAGVKPAVFGGGTKLTVLG
notes: as for B1
B5: the binding result in assay [1] was “no binding”; in assay [2] it was “binds”.

B6: TP-2B8 Fab (Fab, V domains shown)
VH: QVQLVQSGAEVKKPGASVKVSCKASGYTFTGNSMHWVRQAPGQGLEWMGTIFPYDGTTKYAQKFQGRVTMTRDTSISTAYMELSSLRSEDTAVYYCARGVHSYFDYWGQGTLVTVSS
VL: DIELTQPPSVSVAPGQTARISCSGDNLRGYYASWYQQKPGQAPVLVIYEDNNRPSGIPERFSGSNSGNTATLTISGTQAEDEADYYCQSWDSPYVHVFGGGTKLTVLG
notes: as for B1
On to B6, for which the binding result in assay [1] is on record as “no binding”; in assay [2], “binds”.

B7: TP-2G4 Fab (Fab, V domains shown)
VH: QVQLVESGGGLVQPGGSLRLSCAASGFTFSSYAMTWVRQAPGKGLEWVSNISYSGSNTYYADSVKGRFTISRDNSKNTLYLQMNSLRAEDTAVYYCARVGYYYGFDYWGQGTLVTVSS
VL: DIELTQPPSVSVAPGQTARISCSGDALRKHYVYWYQQKPGQAPVLVIYGDNNRPSGIPERFSGSNSGNTATLTISGTQAEDEADYYCQSYDKPYPILVFGGGTKLTVLG
notes: as for B1
For B7, the binding result in assay [1] is “no binding”; in assay [2], “binds”.

B8: TP-3B3 Fab (Fab, V domains shown)
VH: QVQLVESGGGLVQPGGSLRLSCAASGFTFSSYGMHWVRQAPGKGLEWVSNISYMGSNTNYADSVKGRFTISRDNSKNTLYLQMNSLRAEDTAVYYCARGLFPGYFDYWGQGTLVTVSS
VL: DIELTQPASVSVAPGQTARISCSGDNLRSKYAHWYQQKPGQAPVLVIYGDNNRPSGIPERFSGSNSGNTATLTISGTQAEDEADYYCSAYAMGSSPVFGGGTKLTVLG
notes: as for B1
With B8, the binding result was “no binding” in assay [1] and “binds” in assay [2].

B9: TP-2B9 Fab (Fab, V domains shown)
VH: QVQLQQSGPGLVKPSQTLSLTCAISGDSVSSNSAAWGWIRQSPGRGLEWLGMIYHRSKWYNDYAVSVKSRITINPDTSKNQFSLQLNSVTPEDTAVYYCARYSSIGHMDYWGQGTLVTVSS
VL: DIQMTQSPSSLSASVGDRVTITCRASQSIRSYLAWYQQKPGKAPKLLIYKASNLQSGVPSRFSGSGSGTDFTLTISSLQPEDFAVYYCHQYSDSPVTFGQGTKVEIKR
notes: as for B1
In the case of B9, the binding result in assay [1] is “no binding”; in assay [2], “binds”.

B10: TP-2E3 Fab (Fab, V domains shown)
VH: QVQLQQSGPGLVKPSQTLSLTCAISGDSVSSNSAAWGWIRQSPGRGLEWLGMIYYRSKWYNDYAVSVKSRITINPDTSKNQFSLQLNSVTPEDTAVYYCARVNQYTSSDYWGQGTLVTVSS
VL: DIALTQPASVSGSPGQSITISCTGTSSDIGGYNYVSWYQQHPGKAPKLMIYGVNYRPSGVSNRFSGSKSGNTASLTISGLQAEDEADYYCSSADKFTMSIVFGGGTKLTVLG
notes: as for B1
As for B10, the binding result in assay [1] was “no binding”; in assay [2], “binds”.

B11: TP-3F1 Fab (Fab, V domains shown)
VH: QVQLVQSGAEVKKPGESLKISCKGSGYSFTDYWIGWVRQMPGKGLEWMGIIQPSDSDTNYSPSFQGQVTISADKSISTAYLQWSSLKASDTAMYYCARFMWWGKYDSGFDVWGQGTLVTVSS
VL: DIELTQPPSVSVAPGQTARISCSGDNIGSYFASWYQQKPGQAPVLVIYDDSNRPSGIPERFSGSNSGNTATLTISGTQAEDEADYYCEGSNVFGGGTKLTVLG
notes: as for B1
With B11, the binding result in assay [1] was “no binding”.

B12: TP-3A3 Fab (Fab, V domains shown)
VH: QVQLVESGGGLVQPGGSLRLSCAASGFTFNNNAISWVRQAPGKGLEWVSAINSSSSSTSYADSVKGRFTISRDNSKNTLYLQMNSLRAEDTAVYYCARGHHRGHSWASFIDYWGQGTLVTVSS
VL: DIELTQPPSVSVAPGQTARISCSGDNIGSKYVHWYQQKPGQAPVVVIYEDSDRPSGIPERFSGSNSGNTATLTISGTQAEDEADYYCQSWDKSEGYVFGGGTKLTVLG
notes: as for B1
For B12, the binding result in assay [1] was “no binding”; in assay [2], “binds”.

B13: TP-2F9 Fab (Fab, V domains shown)
VH: QVQLVESGGGLVQPGGSLRLSCAASGFTFYKYAMHWVRQAPGKGLEWVSGIQYDGSYTYYADSVKGRFTISRDNSKNTLYLQMNSLRAEDTAVYYCARYYCKCVDLWGQGTLVTVSS
VL: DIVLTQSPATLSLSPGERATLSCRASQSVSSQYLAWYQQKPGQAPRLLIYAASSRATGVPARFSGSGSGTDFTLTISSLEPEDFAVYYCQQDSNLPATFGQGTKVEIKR
notes: as for B1
Take B13: the binding result in assay [1] is “no binding”; in assay [2], “binds”.

B14: TP-2A10 Fab (Fab, V domains shown)
VH: QVQLVESGGGLVQPGGSLRLSCAASGFTFTSYSMNWVRQAPGKGLEWVSAISYTGSNTHYADSVKGRFTISRDNSKNTLYLQMNSLRAEDTAVYYCARAFLGYKESYFDIWGQGTLVTVSS
VL: DIELTQPPSVSVAPGQTARISCSGDKLGKKYVHWYQQKPGQAPVLVIYGDDKRPSGIPERFSGSNSGNTATLTISGTQAEDEADYYCQAWGSISRFVFGGGTKLTVLG
notes: as for B1
For the molecule B14, the binding result in assay [1] is on record as “no binding”; in assay [2] it was “binds”.

B15: TP-2G2 Fab (Fab, V domains shown)
VH: QVQLVESGGGLVQPGGSLRLSCAASGFTFSSYAMNWVRQAPGKGLEWVSAILSDGSSTSYADSVKGRFTISRDNSKNTLYLQMNSLRAEDTAVYYCARYPDWGWYTDVWGQGTLVTVSS
VL: DIELTQPPSVSVAPGQTARISCSGDNIRKFYVHWYQQKPGQAPVLVIYGTNKRPSGIPERFSGSNSGNTATLTISGTQAEDEADYYCQSYDSKFNTVFGGGTKLTVLG
notes: as for B1
In the case of B15, the binding result in assay [1] is given as “no binding”; in assay [2], “binds”.

B16: TP-2B1 Fab (Fab, V domains shown)
VH: QVQLVESGGGLVQPGGSLRLSCAASGFTFSSYSMSWVRQASGKGLEWVSSIKGSGSNTYYADSVKGRFTISRDNSKNTLYLQMNSLRAEDTAVYYCARNGGLIDVWGQGTLVTVSS
VL: DIELTQPPSVSVAPGQTARISCSGDNLGNKYAHWYQQKPGQAPVLVIYYDNKRPSGIPERFSGSNSGNTATLTISGTQAEDEADYYCQSWTPGSNTMVFGGGTRLTVLG
notes: as for B1
As for B16, the binding result is listed as “no binding” in assay [1] and “binds” in assay [2].

The record behind these values is patent US20120269817A1 (Bayer, published 2012).
